Laboratory results from publication PMC11262183, “Arid5a uses disordered extensions of its core ARID domain for distinct DNA- and RNA-recognition and gene regulation”.
Changes are numbered by the printed parent chain.

T1: Arid5a ARID37-183 (human, UniProt Q03989 37-183)
T1 sequence: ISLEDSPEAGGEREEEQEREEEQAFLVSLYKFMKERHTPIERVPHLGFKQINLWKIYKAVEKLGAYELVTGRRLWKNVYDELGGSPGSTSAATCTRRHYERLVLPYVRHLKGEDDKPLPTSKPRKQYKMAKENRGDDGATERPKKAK

T2: ARID49-152 K85A/Q86A (human, UniProt Q03989 49-152, K85A;Q86A)
T2 sequence: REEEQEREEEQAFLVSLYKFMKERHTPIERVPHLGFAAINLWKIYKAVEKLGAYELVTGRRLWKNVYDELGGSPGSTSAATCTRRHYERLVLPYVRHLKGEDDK

T3: Arid5a ARID (Homo sapiens) (UniProt Q03989)
T3 sequence: T2 sequence with A37K, A38Q

T4: Arid5a ARID49-152 (human, UniProt Q03989 49-152)
T4 sequence: T2 sequence with A37K, A38Q

B1: Il-6 3'UTR 129 nt (structured_RNA)
RNA: GGCACAGAACUUAUGUUGUUCUCUAUGGAGAACUAAAAGUAUGAGCGUUAGGACACUAUUUUAAUUAUUUUUAAUUUAUUAAUAUUUAAAUAUGUGAAGCUGAGUUAAUUUAUGUAAGUCAUAUUUAUA
B2: 13merAT_var2 (dsDNA)
DNA 1: GCACGGTATAACG
DNA 2: CGTTATACCGTGC
B3: 13merAT_var4 (dsDNA)
DNA 1: GCACAATACGACG
DNA 2: CGTCGTATTGTGC
B4: FAM-13merAT (dsDNA)
DNA 1: GCACAATATAACG
DNA 2: CGTTATATTGTGC
B5: 13merAT_var1 (dsDNA)
DNA 1: GCGCAATATAGCG
DNA 2: CGCTATATTGCGC
B6: 13merAT (dsDNA)
DNA 1: GCACAATATAACG
DNA 2: CGTTATATTGTGC
B7: FAM-13merGC (dsDNA)
DNA 1: GCCCCGCCCGCCG
DNA 2: CGGCGGGCGGGGC

Target: T1, Arid5a ARID37-183
Assay: NMR; 0.1-fold RNA; 20 mM Bis-Tris pH 6.5, 150 mM NaCl, 2 mM TCEP, 0.02% NaN3; NMR at 298 K; EMSA plus 10 mM MgCl2 and 0.6 ug yeast tRNA per 20 ul, 22-24 C
Conditions: protein: recombinant; tags: cloned in pET-Trx1a (TEV site)

Row | Molecule | binding result
1 | B1 | binds

Target: T1, Arid5a ARID37-183
Assay: EMSA; 10 mM MgCl2, yeast tRNA; range over WT, var1, var2, var4; 20 mM Bis-Tris pH 6.5, 150 mM NaCl, 2 mM TCEP, 0.02% NaN3; NMR at 298 K; EMSA plus 10 mM MgCl2 and 0.6 ug yeast tRNA per 20 ul, 22-24 C
Conditions: protein: recombinant; tags: cloned in pET-Trx1a (TEV site); label: 5'-fluorescein on strand 1; blunt

Row | Molecule | Kd [nM]
2 | B2 | ~1360
3 | B3 | ~1360
4 | B4 | ~1360
5 | B5 | ~1360

Target: T1, Arid5a ARID37-183
Assay: NMR; 3.5-fold RNA; stronger than core; 20 mM Bis-Tris pH 6.5, 150 mM NaCl, 2 mM TCEP, 0.02% NaN3; NMR at 298 K; EMSA plus 10 mM MgCl2 and 0.6 ug yeast tRNA per 20 ul, 22-24 C
Conditions: protein: recombinant; tags: cloned in pET-Trx1a (TEV site); hairpin

Row | Molecule | binding result
6 | CACACCGUUCUAGGUGCUG (structured_RNA) [19mer_ADE (Ox40 ADE)] | binds

Target: T2, ARID49-152 K85A/Q86A
Assay: NMR; 2-fold DNA; 20 mM Bis-Tris pH 6.5, 150 mM NaCl, 2 mM TCEP, 0.02% NaN3; NMR at 298 K; EMSA plus 10 mM MgCl2 and 0.6 ug yeast tRNA per 20 ul, 22-24 C
Conditions: protein: recombinant; tags: cloned in pET-Trx1a (TEV site); blunt

Row | Molecule | binding result
7 | B6 | binds

Target: T5, Arid1a extended ARID (human, UniProt O14497 999-1132)
Assay: EMSA; similar affinity to AT; 20 mM Bis-Tris pH 6.5, 150 mM NaCl, 2 mM TCEP, 0.02% NaN3; NMR at 298 K; EMSA plus 10 mM MgCl2 and 0.6 ug yeast tRNA per 20 ul, 22-24 C
Conditions: protein: recombinant; tags: cloned in pET-Trx1a (TEV site); label: 5'-fluorescein on strand 1; blunt

T5 sequence (O14497 999-1132): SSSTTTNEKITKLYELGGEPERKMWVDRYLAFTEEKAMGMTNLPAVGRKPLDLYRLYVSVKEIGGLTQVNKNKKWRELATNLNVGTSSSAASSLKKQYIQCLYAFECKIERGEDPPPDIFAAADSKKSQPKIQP

Row | Molecule | binding result
8 | B7 | binds

Target: T3, Arid5a ARID (Homo sapiens)
Assay: pulldown
Conditions: 1 and 5 uM protein; 25 mM Tris pH 7.5, 150 mM KCl, 3 mM MgCl2

Row | Molecule | binding signal (RBNS z-score of enrichment R)
9 | AAAAAAA [7-mer AAAAAAA] | 3.68
10 | AAAAAUA [7-mer AAAAATA] | 3.52
11 | AAAUAUA [7-mer AAATATA] | 4.03
12 | AACAGGC [7-mer AACAGGC] | 4.87
13 | AAUAUAA [7-mer AATATAA] | 3.73
14 | ACAGGCA [7-mer ACAGGCA] | 11.6
15 | AGGCAGA [7-mer AGGCAGA] | 6.46
16 | AGGCAGC [7-mer AGGCAGC] | 7.71
17 | AGGCAGG [7-mer AGGCAGG] | 8.18
18 | AGGCAGU [7-mer AGGCAGT] | 6.38
19 | CAGGCAA [7-mer CAGGCAA] | 6.65
20 | CAGGCAG [7-mer CAGGCAG] | 13
21 | CAGGCAU [7-mer CAGGCAT] | 4.61
22 | GCAGGCA [7-mer GCAGGCA] | 5.88
23 | UACAGGC [7-mer TACAGGC] | 5.55

Target: T5, Arid1a extended ARID
Assay: EMSA; 20 mM Bis-Tris pH 6.5, 150 mM NaCl, 2 mM TCEP, 0.02% NaN3; NMR at 298 K; EMSA plus 10 mM MgCl2 and 0.6 ug yeast tRNA per 20 ul, 22-24 C
Conditions: protein: recombinant; tags: cloned in pET-Trx1a (TEV site); label: 5'-fluorescein on strand 1; blunt

Row | Molecule | binding result
24 | B4 | binds

Target: T4, Arid5a ARID49-152
Assay: NMR; 2-fold RNA; 20 mM Bis-Tris pH 6.5, 150 mM NaCl, 2 mM TCEP, 0.02% NaN3; NMR at 298 K; EMSA plus 10 mM MgCl2 and 0.6 ug yeast tRNA per 20 ul, 22-24 C
Conditions: protein: recombinant; tags: cloned in pET-Trx1a (TEV site)

Row | Molecule | binding result
25 | CCUGCCUGU (ssRNA) [RBNS-9mer-rev] | binds
26 | ACAGGCAGG (ssRNA) [RBNS-9mer-fw] | binds
